Consider 31 sequences from the Immune Epitope Database (IEDB).

Some targets named below: HLA-A*02:03; HLA-A*02:02; HLA-A*02:06; HLA-A*33:01; HLA-A*03:01; HLA-A*68:01; HLA-A*31:01; HLA-A*11:01.
Holding throughout (assay): IEDB peptide-MHC binding, purified MHC/competitive/radioactivity; filed as Kd, often an IC50 or EC50 that approximates it; ≥ and ≤ were set here for values at or beyond the usual limits of such assays
The mark [1] stands for this setting: source organism: Vaccinia virus WR.
Setting [2] is: source organism: Dengue virus 1 Brazil/97-11/1997.
Where [3] appears, read: source organism: Lassa virus Josiah.
[4] abbreviates: source organism: Dengue virus 4 Philippines/H241/1956.
Where [5] appears, read: source organism: Dengue virus 3 Martinique/1243/1999.
[6] abbreviates: source organism: SARS coronavirus Tor2.
Setting [7] is: source organism: Vaccinia virus Copenhagen.
Setting [8] is: source organism: Mammarenavirus brazilense.

One may read the Kd as the constant that tells how readily two partners part at equilibrium. In the case of MMVILPDKI, the Kd was 16.3 nM with HLA-A*02:03 (setting [1]), 69.2 nM in the assay with HLA-A*02:02 (setting [1]) and 909 nM with HLA-A*02:06 (setting [1]).
Taken in the same sequence, the figures for CLKNEGVSGL were 25.1 nM, 127 nM and 14100 nM.
With QQLCTMERT, the Kd with HLA-A*02:03 (setting [1]) is 4520 nM; with HLA-A*02:02 (setting [1]), at least 77800 nM; in the assay with HLA-A*02:06 (setting [1]), 929 nM.
For TTPLISFFGL, the Kd in the assay with HLA-A*02:03 (setting [1]) was 17600 nM; in the assay with HLA-A*02:02 (setting [1]), at least 5000 nM; with HLA-A*02:06 (setting [1]) it was 3360 nM.
In the same order, the values of GIYNCCESNI are 140 nM, 68.3 nM and 290 nM.
As to LLKNDVPLA, the Kd in the assay with HLA-A*02:03 (setting [2]) was 8.25 nM.
Consider SVDEEGCGPL, for which the Kd with HLA-A*02:03 (setting [1]) was at least 38700 nM; with HLA-A*02:02 (setting [1]) it was 14800 nM; with HLA-A*02:06 (setting [1]), 12700 nM.
SIINHKFCNL: the results for the Kd in the assay with HLA-A*02:03 (setting [3]), in the assay with HLA-A*02:02 (setting [3]) and with HLA-A*02:06 (setting [3]) were 562 nM, 247 nM and 1010 nM, respectively.
For the sequence RTTWAFCEV, the Kd with HLA-A*02:06 (setting [4]) stood at 23.1 nM.
Consider LLLGVGLAMA, for which the Kd with HLA-A*02:03 (setting [5]) is 2.33 nM; in the assay with HLA-A*02:06 (setting [5]), 3.81 nM.
PQDNQLAYV: the Kd with HLA-A*02:06 (setting [2]) is 166 nM.
With QLMYDIINSV, the Kd in the assay with HLA-A*02:03 (setting [1]) came out at 0.139 nM; in the assay with HLA-A*02:02 (setting [1]), 1.87 nM; in the assay with HLA-A*02:06 (setting [1]), 5.61 nM.
Turning to FMRFFTLGSI, the Kd turned out to be 0.76 nM with HLA-A*02:03 (setting [6]), 24.2 nM in the assay with HLA-A*02:02 (setting [6]) and 195 nM with HLA-A*02:06 (setting [6]).
As to LAELLEMKYA, the figures for the Kd in the assay with HLA-A*02:03 (setting [1]), in the assay with HLA-A*02:02 (setting [1]) and in the assay with HLA-A*02:06 (setting [1]) were 1040 nM, 999 nM and 2450 nM, respectively.
LLVAHYAII: the Kd with HLA-A*02:03 (source organism: Dengue virus 2 Jamaica/1409/1983) was 27.3 nM.
In the case of IAVASGLLWV, the dissociation constant Kd with HLA-A*02:06 (setting [4]) was found to be 10.6 nM.
Turning to SLVYGIRCV, the values for the Kd in the assay with HLA-A*02:03 (setting [1]), in the assay with HLA-A*02:02 (setting [1]) and with HLA-A*02:06 (setting [1]) were 3.83 nM, 2940 nM and 168 nM, respectively.
NMDKVSAQNI: the Kd with HLA-A*02:03 (setting [1]) is 16800 nM; with HLA-A*02:02 (setting [1]), 8020 nM; in the assay with HLA-A*02:06 (setting [1]) it was at least 69800 nM.
Turning to ELMMTTIGIV, the Kd with HLA-A*02:03 (source organism: Dengue virus 2 Peru/IQT2913/1996) was found to be 2.02 nM.
As for SLYKGVYEL, the Kd with HLA-A*02:03 (setting [3]) was found to be 5.81 nM; with HLA-A*02:02 (setting [3]), 56.8 nM; with HLA-A*02:06 (setting [3]), 394 nM.
Regarding CQLMYALEPR, the Kd with HLA-A*33:01 (setting [7]) was determined as 14.4 nM; in the assay with HLA-A*03:01 (setting [7]) it was 58 nM; with HLA-A*68:01 (setting [7]), 7.65 nM; with HLA-A*31:01 (setting [7]), 1050 nM; with HLA-A*11:01 (setting [7]), 39.2 nM.
As for FTSTNDKIK, the Kd is at least 77700 nM with HLA-A*33:01 (setting [1]); 1190 nM in the assay with HLA-A*03:01 (setting [1]); 113 nM with HLA-A*68:01 (setting [1]); 15200 nM with HLA-A*31:01 (setting [1]); 58.8 nM with HLA-A*11:01 (setting [1]).
Consider RALKYDFNH, for which the Kd in the assay with HLA-A*33:01 (setting [8]) worked out at 7170 nM; in the assay with HLA-A*03:01 (setting [8]) it was 5700 nM; with HLA-A*68:01 (setting [8]), 6970 nM; with HLA-A*31:01 (setting [8]) it was 65.2 nM; with HLA-A*11:01 (setting [8]), 4370 nM.
Regarding SLLKTHRMCK, the Kd is 6920 nM with HLA-A*33:01 (setting [6]); 13.4 nM with HLA-A*03:01 (setting [6]); at least 23300 nM in the assay with HLA-A*68:01 (setting [6]); 452 nM with HLA-A*31:01 (setting [6]); 39 nM with HLA-A*11:01 (setting [6]).
Consider GVAPGTAVLR, for which the Kd with HLA-A*33:01 (setting [6]) was at least 41900 nM; with HLA-A*03:01 (setting [6]), 1320 nM; with HLA-A*68:01 (setting [6]) it was 43.2 nM; in the assay with HLA-A*31:01 (setting [6]) it was 2850 nM; with HLA-A*11:01 (setting [6]), 165 nM.
For the sequence FIKYVNGWVK, the Kd was 111 nM in the assay with HLA-A*33:01 (setting [1]); 1.76 nM with HLA-A*03:01 (setting [1]); 1.13 nM with HLA-A*68:01 (setting [1]); 115 nM with HLA-A*31:01 (setting [1]); 1.56 nM with HLA-A*11:01 (setting [1]).
For ILAEYIRHR, the Kd was determined as 48.4 nM in the assay with HLA-A*33:01 (setting [1]); 77.5 nM with HLA-A*03:01 (setting [1]); 15 nM with HLA-A*68:01 (setting [1]); 13.6 nM in the assay with HLA-A*31:01 (setting [1]); 1450 nM with HLA-A*11:01 (setting [1]).
On to DMMFINSTCY, for which the Kd with HLA-A*33:01 (setting [1]) is 883 nM; with HLA-A*03:01 (setting [1]), 821 nM; in the assay with HLA-A*68:01 (setting [1]), 1910 nM; with HLA-A*31:01 (setting [1]), 974 nM; in the assay with HLA-A*11:01 (setting [1]), 10800 nM.
AVVCYNSNY: the Kd is at least 77700 nM in the assay with HLA-A*33:01 (setting [6]); 5400 nM with HLA-A*03:01 (setting [6]); 10100 nM with HLA-A*68:01 (setting [6]); 14200 nM with HLA-A*31:01 (setting [6]); 698 nM in the assay with HLA-A*11:01 (setting [6]).
For the sequence IVTFRERYSY, the Kd in the assay with HLA-A*33:01 (setting [1]) was 14300 nM; with HLA-A*03:01 (setting [1]), 469 nM; with HLA-A*68:01 (setting [1]) it was 1020 nM; with HLA-A*31:01 (setting [1]), 194 nM; with HLA-A*11:01 (setting [1]), 144 nM.
For CYLDTNIKM, the Kd in the assay with HLA-A*33:01 (setting [1]) is 10900 nM; in the assay with HLA-A*03:01 (setting [1]) it was at least 38600 nM; with HLA-A*68:01 (setting [1]) it was at least 25800 nM; in the assay with HLA-A*31:01 (setting [1]), 285 nM; with HLA-A*11:01 (setting [1]), at least 77900 nM.
